Substrate in data set [1]: CC(C)=CCC/C(C)=C\C=O
The data set is described as follows: purified protein. The data set is classed as biochemical, Saccharomyces cerevisiae. The note with it: FMN; NADPH active site; H191/N194 hydrogen bonds with the carbonyl oxygen of citral, hydride from FMNH2 to Cβ, Y196 proton donor (docking).

Substrate in data set [2]: CC(C)=CCC/C(C)=C/C=O
The experiment in a line: purified protein. The note with it: FMN, NADPH active site. The format is biochemical, Saccharomyces cerevisiae.

[3] abbreviates: H191/N194 hydrogen bonds with the carbonyl oxygen of citral, hydride from FMNH2 to Cβ, Y196 proton donor (docking).

B1: old yellow enzyme OYE3 (Saccharomyces cerevisiae S288C) (protein)
chain: PFVKGFEPISLRDTNLFEPIKIGNTQLAHRAVMPPLTRMRATHPGNIPNKEWAAVYYGQRAQRPGTMIITEGTFISPQAGGYDNAPGIWSDEQVAEWKNIFLAIHDCQSFAWVQLWSLGWASFPDVLARDGLRYDCASDRVYMNATLQEKAKDANNLEHSLTKDDIKQYIKDYIHAAKNSIAAGADGVEIHSANGYLLNQFLDPHSNKRTDEYGGTIENRARFTLEVVDALIETIGPERVGLRLSPYGTFNSMSGGAEPGIIAQYSYVLGELEKRAKAGKRLAFVHLVEPRVTDPSLVEGEGEYSEGTNDFAYSIWKGPIIRAGNYALHPEVVREQVKDPRTLIGYGRFFISNPDLVYRLEEGLPLNKYDRSTFYTMSAEGYTDYPTYEEAVDLGWNKN
By Km is commonly meant the concentration of substrate that gives half-maximal velocity. The Vmax is the rate approached at saturating substrate. As a reminder, the kcat is the maximal rate divided by the concentration of active sites. As a reminder, the kcat/Km is the turnover number divided by the Michaelis constant. As for B1, in “purified protein [1]”, the Km is 70 ± 10 µM, the Vmax came out at 0.12 µmol/min/mg, the kcat was 0.1 ± 0.01 s⁻¹ and the specificity constant (kcat/Km) is 1490 ± 80 M⁻¹ s⁻¹. Further, in the data set “purified protein [2]” (setting [3]), the Km worked out at 50 ± 10 µM, the Vmax was 0.16 µmol/min/mg, the kcat was determined as 0.13 ± 0.02 s⁻¹ and the specificity constant (kcat/Km) amounted to 2760 ± 110 M⁻¹ s⁻¹.

B2: old yellow enzyme OYE3 (Saccharomyces cerevisiae S288C; S297F/W117G) (protein)
chain: MPFVKGFEPISLRDTNLFEPIKIGNTQLAHRAVMPPLTRMRATHPGNIPNKEWAAVYYGQRAQRPGTMIITEGTFISPQAGGYDNAPGIWSDEQVAEWKNIFLAIHDCQSFAWVQLGSLGWASFPDVLARDGLRYDCASDRVYMNATLQEKAKDANNLEHSLTKDDIKQYIKDYIHAAKNSIAAGADGVEIHSANGYLLNQFLDPHSNKRTDEYGGTIENRARFTLEVVDALIETIGPERVGLRLSPYGTFNSMSGGAEPGIIAQYSYVLGELEKRAKAGKRLAFVHLVEPRVTDPFLVEGEGEYSEGTNDFAYSIWKGPIIRAGNYALHPEVVREQVKDPRTLIGYGRFFISNPDLVYRLEEGLPLNKYDRSTFYTMSAEGYTDYPTYEEAVDLGWNKN
In the case of B2, the Michaelis-Menten constant (Km) in the data set “purified protein [2]” (accommodation similar to OYE3 (docking)) is 90 µM.

Values taken from publication PMC8399149, “Engineering of Yeast Old Yellow Enzyme OYE3 Enables Its Capability Discriminating of (E)-Citral and (Z)-Citral” (Molecules, 2021).
